In FireProtDB (doi:10.1021/bi00123a006):

B1: Ribonuclease, P00648 (parent)
chain: MMKMEGIALKKRLSWISVCLLVLVSAAGMLFSTAAKTETSSHKAHTEAQVINTFDGVADYLQTYHKLPDNYITKSEAQALGWVASKGNLADVAPGKSIGGDIFSNREGKLPGKSGRTWREADINYTSGFRNSDRILYSSDWLIYKTTDHYQTFTKIR

Variants of: B1
Conditions: Bacillus amyloliquefaciens, 25 °C, Urea, NMR, NaCl 1 M, structure 1BNI, whole UniProt chain shown

Row | Variant | ddG of mutation (higher = less stable) (pH 4.4, Sodium acetate 30 mM) | unfolding free energy (pH 4.4, Sodium acetate 30 mM) | ddG of mutation (higher = less stable) (pH 8.9, Tris 30 mM) | unfolding free energy (pH 8.9, Tris 30 mM) | unfolding free energy (pH 5.9, MES 30 mM)
1 | MMKMEGIALKKRLSWISVCLLVLVSAAGMLFSTAAKTETSSHKAHTEAQVINTFDGVADYLQTYHKLPDNYIHKSEAQALGWVASKGNLADVAPGKSIGGNIFSNREGKLPGKSGRTWREADINYTSGFRNSDRILYSSDWLIYKTTDHYQTFTKIR | 5.74 kcal/mol | 2.39 kcal/mol | 4.27 kcal/mol | 3.78 kcal/mol | 
2 | MMKMEGIALKKRLSWISVCLLVLVSAAGMLFSTAAKTETSSHKAHTEAQVINTFDGVADYLQTYHKLPDNYITKSEAQALGWVASKGNLADVAPGKSIGGNIFSNREGKLPGKSGRTWREADINYTSGFRNSDRILYSSDWLIYKTTDHYQTFTKIR | 2.65 kcal/mol | 5.48 kcal/mol | 2.32 kcal/mol | 5.73 kcal/mol | 
3 | MMKMEGIALKKRLSWISVCLLVLVSAAGMLFSTAAKTETSSHKAHTEAQVINTFDGVADYLQTYHKLPDNYITKSEAQALHWVASKGNLADVAPGKSIGGDIFSNREGKLPGKSGRTWREADINYTSGFRNSDRILYSSDWLIYKTTDHYQTFTKIR | 2.6 kcal/mol | 5.53 kcal/mol | 3.15 kcal/mol | 4.9 kcal/mol | 
4 | MMKMEGIALKKRLSWISVCLLVLVSAAGMLFSTAAKTETSSHKAHTEAQVINHFDGVADYLQTYHKLPDNYITKSEAQALGWVASKGNLADVAPGKSIGGDIFSNREGKLPGKSGRTWREADINYTSGFRNSDRILYSSDWLIYKTTDHYQTFTKIR | 2.65 kcal/mol | 5.48 kcal/mol | 1.56 kcal/mol | 6.49 kcal/mol | 
5 | MMKMEGIALKKRLSWISVCLLVLVSAAGMLFSTAAKTETSSHKAHTEAQVINTFDGVADYLQTYGKLPDNYITKSEAQALGWVASKGNLADVAPGKSIGGDIFSNREGKLPGKSGRTWREADINYTSGFRNSDRILYSSDLLIYKTTDHYQTFTKIR |  |  | -0.33 kcal/mol | 8.38 kcal/mol | 8.11 kcal/mol
6 | MMKMEGIALKKRLSWISVCLLVLVSAAGMLFSTAAKTETSSHKAHTEAQVINTFDGVADYLQTYHKLPDNYITKSEAQALGWVASKGNLADVAPGKSIGGDIFSNREGKLPGKSGRTWREADINYTSGFRNSDRILYSSDLLIYKTTDHYQTFTKIR |  |  | 0.64 kcal/mol | 7.41 kcal/mol | 7.67 kcal/mol
